{"source": "patent US20230321260A1", "target": "MBP-RumTrunkD9NTag", "experiment": "isopeptide coupling to RumTrunkD9NTag-MBP, 5 uM each, 37 C, SDS gel (time given as 50 minutes and as 3 h)"}
{"substance": "SpyCatcher-VLP", "values": [{"measurement": "Percentage reconstitution", "value": 11.9, "unit": "%"}]}
